What was measured:
[1] = target: human BNP(1-32) (human); assay: sandwich ELISA, L21016 capture, mAb detection; BNP(1-32) 20 pg/ml
[2] = target: human BNP(1-32) (human); assay: sandwich ELISA, L21016 capture, mAb detection; BNP(1-32) 10,000 pg/ml
[3] = target: human proBNP(1-108), recombinant, produced in E. coli (non-glycosylated) (human) (UniProt P16860); assay: sandwich ELISA, hinge 76 capture, peroxidase-mAb detection; proBNP(1-108) 2,500 pg/ml
[4] = target: human proBNP(1-108), recombinant, produced in E. coli (non-glycosylated) (human) (UniProt P16860); assay: sandwich ELISA, hinge 76 capture, peroxidase-mAb detection; proBNP(1-108) 625 pg/ml
[5] = target: human BNP(1-32) (human); assay: sandwich ELISA, L21016 capture, mAb detection; BNP(1-32) 625 pg/ml
[6] = target: human proBNP(1-108), recombinant, produced in E. coli (non-glycosylated) (human) (UniProt P16860); assay: sandwich ELISA, hinge 76 capture, peroxidase-mAb detection; proBNP(1-108) 20 pg/ml
[7] = target: human BNP(1-32) (human); assay: sandwich ELISA, L21016 capture, mAb detection; BNP(1-32) 5,000 pg/ml
[8] = target: human BNP(1-32) (human); assay: sandwich ELISA, L21016 capture, mAb detection; BNP(1-32) 39 pg/ml
[9] = target: human proBNP(1-108), recombinant, produced in E. coli (non-glycosylated) (human) (UniProt P16860); assay: sandwich ELISA, hinge 76 capture, peroxidase-mAb detection; proBNP(1-108) 1,250 pg/ml
[10] = target: human proBNP(1-108), recombinant, produced in E. coli (non-glycosylated) (human) (UniProt P16860); assay: sandwich ELISA, hinge 76 capture, peroxidase-mAb detection; proBNP(1-108) 0 pg/ml (blank)
[11] = target: human BNP(1-32) (human); assay: sandwich ELISA, L21016 capture, mAb detection; BNP(1-32) 78 pg/ml
[12] = target: human BNP(1-32) (human); assay: sandwich ELISA, L21016 capture, mAb detection; BNP(1-32) 1,250 pg/ml
[13] = target: human proBNP(1-108), recombinant, produced in E. coli (non-glycosylated) (human) (UniProt P16860); assay: sandwich ELISA, hinge 76 capture, peroxidase-mAb detection; proBNP(1-108) 78 pg/ml
[14] = target: human proBNP(1-108), recombinant, produced in E. coli (non-glycosylated) (human) (UniProt P16860); assay: sandwich ELISA, hinge 76 capture, peroxidase-mAb detection; proBNP(1-108) 5,000 pg/ml
[15] = target: human BNP(1-32) (human); assay: sandwich ELISA, L21016 capture, mAb detection; BNP(1-32) 2,500 pg/ml
[16] = target: human BNP(1-32) (human); assay: sandwich ELISA, L21016 capture, mAb detection; BNP(1-32) 156.25 pg/ml
[17] = target: human proBNP(1-108), recombinant, produced in E. coli (non-glycosylated) (human) (UniProt P16860); assay: sandwich ELISA, hinge 76 capture, peroxidase-mAb detection; proBNP(1-108) 10,000 pg/ml
[18] = target: human proBNP(1-108), recombinant, produced in E. coli (non-glycosylated) (human) (UniProt P16860); assay: sandwich ELISA, hinge 76 capture, peroxidase-mAb detection; proBNP(1-108) 39 pg/ml
[19] = target: human proBNP(1-108), recombinant, produced in E. coli (non-glycosylated) (human) (UniProt P16860); assay: sandwich ELISA, hinge 76 capture, peroxidase-mAb detection; proBNP(1-108) 312.5 pg/ml
[20] = target: human proBNP(1-108), recombinant, produced in E. coli (non-glycosylated) (human) (UniProt P16860); assay: sandwich ELISA, hinge 76 capture, peroxidase-mAb detection; proBNP(1-108) 156.25 pg/ml
[21] = target: human BNP(1-32) (human); assay: sandwich ELISA, L21016 capture, mAb detection; BNP(1-32) 312.5 pg/ml
[22] = target: human BNP(1-32) (human); assay: sandwich ELISA, L21016 capture, mAb detection; BNP(1-32) 0 pg/ml (blank)
[23] = target: human BNP(1-32) (human); assay: sandwich ELISA, L21016 capture, BNP(1-32) 5 ng/ml; detection by 50B7 0.5 ug/ml alone (no 20G7)

human proBNP(1-108), recombinant, produced in E. coli (non-glycosylated) (human), sequence (P16860 27-134): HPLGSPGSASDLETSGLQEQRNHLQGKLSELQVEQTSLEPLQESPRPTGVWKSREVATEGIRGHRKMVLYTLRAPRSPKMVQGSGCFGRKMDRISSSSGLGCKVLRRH
human BNP(1-32) (human), sequence (peptide, as listed by the source): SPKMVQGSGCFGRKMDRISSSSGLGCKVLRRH

optical density (OD) at 490 nm [1] | optical density (OD) at 490 nm [2] | optical density (OD) [3] | optical density (OD) [4] | optical density (OD) at 490 nm [5] | optical density (OD) [6] | optical density (OD) at 490 nm [7] | optical density (OD) at 490 nm [8] | optical density (OD) [9] | optical density (OD) [10] | optical density (OD) at 490 nm [11] | optical density (OD) at 490 nm [12] | optical density (OD) [13] | optical density (OD) [14] | optical density (OD) at 490 nm [15] | optical density (OD) at 490 nm [16] | optical density (OD) [17] | optical density (OD) [18] | optical density (OD) [19] | optical density (OD) [20] | Substance | also measured
0.068 OD | 0.077 OD | 0.069 OD | 0.07 OD | 0.059 OD | 0.052 OD | 0.068 OD | 0.055 OD | 0.068 OD | 0.044 OD | 0.052 OD | 0.056 OD | 0.056 OD | 0.117 OD | 0.067 OD | 0.071 OD | 0.22 OD | 0.056 OD | 0.035 OD | 0.055 OD | 24C5 monoclonal antibody (HyTest, Turku, Finland) | optical density (OD) at 490 nm [21]: 0.063 OD; optical density (OD) at 490 nm [22]: 0.071 OD
 |  |  |  |  |  |  |  |  |  |  |  |  |  |  |  |  |  |  |  | 50B7 monoclonal antibody (HyTest, Finland) | Optical Density 490 nm [23]: 1.3 OD
0.034 OD | 0.048 OD | 0.031 OD | 0.024 OD | 0.029 OD | 0.028 OD | 0.041 OD | 0.032 OD | 0.024 OD | 0.024 OD | 0.055 OD | 0.031 OD | 0.033 OD | 0.041 OD | 0.035 OD | 0.032 OD | 0.158 OD | 0.028 OD | 0.028 OD | 0.027 OD | 26E2 monoclonal antibody (HyTest, Turku, Finland) | optical density (OD) at 490 nm [21]: 0.027 OD; optical density (OD) at 490 nm [22]: 0.022 OD
